The values that follow come from patent CN112079918A (CANVEST WUHAN BIOTECHNOLOGY CO LTD, dated 2020).

The target of one test is BSA (UniProt P02769 25-607). Put plainly: ELISA.
Test [1] addresses 17SF HA (A/Guangdong/17SF003/2016) hemagglutinin protein (influenza A virus A/Guangdong/17SF003/2016 (H7N9)). In words: ELISA, P51C05 IgG on HA protein.
Test [2] addresses SH02 HA (A/Shanghai/2/2013 H7N9) hemagglutinin protein (influenza A virus A/Shanghai/2/2013 (H7N9)). Put plainly: ELISA, P51C05 IgG on HA protein.

Chain of BSA (P02769 25-607 limits assumed): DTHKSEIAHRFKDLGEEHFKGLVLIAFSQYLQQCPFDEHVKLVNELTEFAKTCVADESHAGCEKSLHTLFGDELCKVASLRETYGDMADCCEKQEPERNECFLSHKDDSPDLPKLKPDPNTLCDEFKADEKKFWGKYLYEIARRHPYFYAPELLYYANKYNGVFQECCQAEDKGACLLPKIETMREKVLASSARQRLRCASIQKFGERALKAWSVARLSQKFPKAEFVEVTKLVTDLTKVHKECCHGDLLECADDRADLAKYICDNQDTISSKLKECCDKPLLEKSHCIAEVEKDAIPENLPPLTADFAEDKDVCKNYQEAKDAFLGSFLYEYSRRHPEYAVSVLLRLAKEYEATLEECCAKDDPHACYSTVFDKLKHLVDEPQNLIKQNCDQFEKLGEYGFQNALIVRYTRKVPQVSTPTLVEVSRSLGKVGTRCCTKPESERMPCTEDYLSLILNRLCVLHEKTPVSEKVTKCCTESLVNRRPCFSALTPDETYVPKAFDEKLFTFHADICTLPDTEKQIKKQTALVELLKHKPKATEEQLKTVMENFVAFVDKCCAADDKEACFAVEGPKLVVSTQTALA

B1: H7N9病毒特异性识别抗体P51C05 (IgG形式) (antibody, V domains shown)
VH: EVQLVQSGSELKKPGASVKVSCKASGYTFTSYTMNWVRQAPGQGLEWMGWINTNTGNPTYAQGFTGRFVFSLDTSVSTAYLQISSLKTEDTAVYYCARGVYGMDVWGQGTTVTVSS
VL: EIVLTQSPGTLSLSPGERATFSCRASQTVSNYLAWYQQKVGQAPRLLIYDASNRATGIPARFSGSGSGTDFTLTISSLEPEDFAVYYCQQRYNWPLTFGGGTKVEIKG
Turning to B1, the binding result with BSA is on record as “no binding”. The EC50 in test [1] and in test [2] was under 1 nM throughout.
